Reference: patent publication US20040009166A1

Tests used:
[1] = target: Recombinant human TNF-alpha (Pierce, cat # RTNFA50) (human) (UniProt P01375); experiment: cell-based or functional assay
[2] = target: Recombinant human TNF-alpha (Pierce, cat # RTNFA50) (human) (UniProt P01375); experiment: SPR (BiaCore X), rhTNF-alpha immobilized on CM5 chip, SCA as analyte, 1:1 fit

Sequence of UniProt P01375 (P01375 whole entry, form in doubt): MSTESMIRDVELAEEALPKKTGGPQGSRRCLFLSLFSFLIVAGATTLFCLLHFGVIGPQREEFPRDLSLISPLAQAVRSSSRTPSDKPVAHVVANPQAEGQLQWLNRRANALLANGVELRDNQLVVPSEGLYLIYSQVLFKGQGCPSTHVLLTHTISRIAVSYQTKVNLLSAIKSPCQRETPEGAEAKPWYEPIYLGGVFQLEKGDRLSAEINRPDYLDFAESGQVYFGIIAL

Substance: 2-7-SC-4 SCA (D2E7 SCA, VL-218-VH, no his tag, C-terminus Cys), native (scFv)
- IC50 Values (cell rescue of WEHI-13VAR cells from TNF-alpha) [1]: 7.18 nM
- Ka [2]: 5.49e+08 M⁻¹
- Kd [2]: 1.82 nM
- koff [2]: 0.000495 s⁻¹
- kon [2]: 272000 M⁻¹ s⁻¹

Substance: 2-7-SC-2 SCA (D2E7 SCA, VL-218-VH-his6, C-terminus Cys), native (scFv)
- IC50, TNF-sensitive cell rescue assay, after 5 cycles of freeze-thaw [1]: 225 nM
- IC50, TNF-sensitive cell rescue assay, after 10 cycles of freeze-thaw [1]: 0.302 µg/mL
- IC50 values (to rescue 50% WEHI-13VAR cells from killing by 1.0 ng/ml TNF) [1]: 3.05 nM
- Ka [2]: 8.36e+08 M⁻¹
- Kd [2]: 1.2 nM
- koff [2]: 0.000392 s⁻¹
- kon [2]: 328000 M⁻¹ s⁻¹

Substance: 2-7-SC-7 SCA (D2E7 SCA, VH-(GGGGS)3-VL-his6, Cys at linker position 2), native (scFv)
- Ka [2]: 1.19e+10 M⁻¹
- Kd [2]: 0.0843 nM
- koff [2]: 2.96e-06 s⁻¹
- kon [2]: 35100 M⁻¹ s⁻¹

Substance: 2-7-SC-5 SCA (D2E7 SCA, VL-218-VH-his6, Cys at linker position 2), native (scFv)
- IC50 Values (cell rescue of WEHI-13VAR cells from TNF-alpha) [1]: 4.18 nM
- Ka [2]: 1.55e+10 M⁻¹
- Kd [2]: 0.0644 nM
- koff [2]: 1.12e-05 s⁻¹
- kon [2]: 173000 M⁻¹ s⁻¹

Substance: 2-7-SC-3 SCA (D2E7 SCA, VH-(GGGGS)3-VL-his6, C-terminus Cys), native (scFv)
- Ka [2]: 1.1e+08 M⁻¹
- Kd [2]: 9.05 nM
- koff [2]: 0.000416 s⁻¹
- kon [2]: 46400 M⁻¹ s⁻¹
